Assay: label from the status in PepcDB records

Row | Sequence | protein production
1 | MLMSFILLISTSMILISVFSYVLIALIVLGIVLSLISLLSPRVSYVSSVYLIGLTVYLNPGFSLTQSLINTVPILGEINMLSGLLKTPVTSIISSLFSLALLNLGIKGYEIYLSKHADIVKLDSIIFSQHGLPKQANWNIVVNSEVKLLKSNEKLILSNTPEAKYELCPTLVDHKYYVPNKVTGLAFEGEVIRINYSPVDGVPYEKFRNCFTVFEVEGLPPDTSFVIEINGASLKLKDRKFAKLSLEPLYWKVNEIRISREDEEEIYEPDIKEGLTFRGGTVKINFRRKVIRYKTAKIPSIENWDPGIWVGQEVYGYRVIEVIGLGGNGYVMKVEKNGLLYAMKVLSVNKFTNSLEHFDNLLKESENLEKLSKDPRLVSIYGSFVDKNNIQSALAGDYTSYYKYPPAIIMEFMEGGTLFDLISRVDLVQSKYWQYIVKLVIKEIAKALTFLHKRGYVHLDVKPQNIFLKEKINGEPEVVYKILSSTPGIIKLGDLGSAVRVGEKITQATPAYSPPEQIEAVITGKGAQPSMDNYALGVTLYKLLTMKNLDYVNYLDKAFDEYIKGDPSIAMKYINMAKMSMVNFKPKLPHNTLPELANVVQGTLVVDPKRRLTSYDIVKILEG | failed
2 | MGLKQTLKEIYYIVADKRLLYFSLSLGISTFAYSLLTYYFPIIMTNLDITTFTIGIIYSIISFLYVVFNIPLGAIVDKIGSKNAVTLSALMAVPLFLLMGTLNPLLFIISLVIFESVIRIVNSLGAHRFMLNYTNAGKAFGVFSLITSILAAIGIMLGGYLLQHSVSTLLFTIIAVLFGISGIIRFLELPKDENKVEVKRSLRLGFKYLKEDKKLLLYLLVSILSSGLSLETYYVTIYFVKDLLLPLTFVGVLYSSYALIMAFLPLLFSVILSKRSNFKNLSILIFSNSVIFFLVPLFTNVYILFLLFYAWTVIVAMESIVDYNVAQSVTKPEIRGTQVALISTFVRIFSVFYNAIVGLLFQITPLYSFYFTGFLGILAIFTIKFAEFIGVLK | failed
3 | MDKYPFLREAGSSFKDRDVTKMSDLIATWDGQDIKGPALIGVPLSKSSISHSGASFAPGTIRQALKHSSAYSAELGEHVVSELLYDLGDIDIHVTDIVKSHHHIFQTMHALLSDHPDWVPLILGGDNSISYSTIKAIAQTKGTTAVIQFDAHHDVRNTEDGGPTNGTPFRRLLDEEIIEGQHLIQLGIREFSNSQAYEAYAKKHNVNIHTMDMIREKGLIPTIKEILPVVQDKTDFIFISVDMDVLDQSHAPGCPAIGPGGLYTDELLEAVKYIAQQPNVAGIEIVEVDPTLDFRDMTSRAAAHVLLHALKGMKLSPFK | not failed
4 | MSKDLLFWLTILLVLISGYLSYRKKRIESLTTAGLAGGFALSFMLYEKFPVLFSFLLGFIATFAFEWTRKR | failed
5 | MNRRGGQTAFAAIARNERAIAAFIPYSSHLTDTTLITHGADLVRTWRVQGIAFESAEPELVSQRHEQLNGLWRAISCEQVALWIHCIRRKTQAGLDARYENPFCRALDASYNARLNARQAMTNEFYLTLVYRPGHAALGKRAHHGQAEVRRQLLAHVRRMDEIGSLIETTLRSHGENHEQAITVLGCETDSAGRRYSRTLTLLEFLLTGHWQPVRVPAGPVDAYLGSSRILAGAEMMELRAPTCRRYAQFIDFKEYGTHTEPGMLNALLYEDYEYVITHSFSAVGKRQALAYLQRQRAQLANVQDAAYSQIDDLAHAEDALVNGDFVIGEYHFSMMILGADPRQLRRDVSSAMTRIQERGFLATPVTLALDAAFYAQLPANWAYRSRKAMLTSRNFAGLCSFHNFYGGKRDGNPWGPALSLLSTPSGQPFYFNFHHSGLDEDCRGQMMLGNTRIIGQSGSGKTVLLNFLLCQLQKFRSADADGLTTIFFDKDRGAEICIRALDGQYLRIRDGEPTGFNPLQLPCTDRNVMFLDSLLAMLARAHDSPLTSAQHATLATAVRTVLRMPASLRRMSTLLQNITQATSEQRELVRRLGRWCRDDGAGGTGMLWWVFDNPNDCLDFSRPGNYGIDGTAFLDNAETRTPISMYLLHRMNEAMDGRRFVYLMDEAWKWIDDPAFAEFAGDQQLTIRKKNGLGVFSTQMPSSLLGARVAASLVQQCATEIYLPNPRADRAEYLDGFKCTETEYQLIRSMAEDSHLFLVKQGRQAVVAQLDLSGMDDELAILSGNARNLRCFEQALALTRERDPNDWIAVFHRLRREASAGLR | failed
6 | MTYFLYGNNFSSSILDTISYIIDWIIINMEPITLTLCLLVFAIVMFVWEKVPLAVTSMIVCVALVITGVLNIKQAFAGFIDTNVILFVAMFIVGGALFETGMANKVGGVITRFAKTEKQLIFTIMVVVGLMSGVLSNTGTAAVLIPVVIGVAAKSGFSRSRLLMPLVFAAALGGNLSLIGAPGNLIAQSALQNIGGGFGFFEYAKIGLPMLICGILYFLTIGYRFLPNNATGGEVGSVGEQRDYSHVPQWKQRLSLVVLIATILGMIFEKKIGVSLAVTGCIGALVLVVSGVLTEKQAYKAIDSQTIFIFGGTLALAKALEMTGAGKLVADYVIGMLGQNSSPFMLLIAVFALSVVMTNFMSNTATTALLVPVSLSIAAGMGADPRAVLMATVIGGSCAYATPIGMPANMMVLSAGGYKFVDYAKAGIPLIIVSTIVSLILLPILFPFHP | failed
7 | MKPKLILMSHGRMAEETLASTQMIVGELADAAIVSMTAEDGLSGTQAKLAAILKEAGNVPTLVLADLKGGTPCNVAMMAMGTYPQLRVVAGLNLAMAIEAAVSPVENVDELAAYLTQIGQSAVTTIDLPELTDEEEFEE | not failed
8 | MEKALTKVTSFKVGSSWISKKAKEELSNITNDLTTFSSTVEEKAKWIFNKLKGKPLKSLPDLLKEYNLPPGLFPQNIICYEFDETKNKLTVFFSSPCEVTFKDGSAIRYATRVKGILLRGKLMGVEGMKTKVLVWVKVTTISVESSKSDKLWFTAGVKKSRSKDVYDTPHDAIKVIGEF | failed
9 | LQASCSDDQEHRLGSLDFYTGVFALEKSRIAEISNRATLELQKMATSGEPMWLRSVETGREILNYDEYLKEFPQAQASSFPGRKTIEASRDAGIVFMDAHKLAQSFMDVGQWKETFACLISKAATVDVIRQGEGPSRIDGAIQLMFGEMQLLTPVVPTREVYFVRSCRQLSPEKWAIVDVSVSVEDSNTEKEASLLKCRKLPSGCIIEDTSNGHSKVTWVEHLDVSASTVQPLFRSLVNTGLAFGARHWVATLQLHCERLVFFMATNVPTKDSLGVTTLAGRKSVLKMAQRMTQSFYRAIAASSYHQWTKITTKTGQDMRVSSRKNV | not failed
10 | MKSAPAVISVAFVLGLLTWLLLHGLNINSARYDSQLRALGDFTRFERGMTREVLTARAGLSRNYDALVHMVNAYDDALTRLRDTAGLDAEQTRVIDVLSARADRQESLIERFKSRNALLQNSFAYFGLFSDRLAASESRPVVTAASALAAAMLRLTLDTSDAAARQVEDRLEELAQLQAPPAETDSVHALLLHGQMLHDLLPDIDTILKTLVAESNNREQDAMLAVILKRQLAARASARKTRLLQYITSLLLLSGIIYFGMLLRKRAMALRRRAAFEHVIANISMLFINSSNDGIDADVEMALRQLAGCIGADRAYFACVVGTTMHTYRWSRDGIAFEPGWPERVLSLAPRLDGGEDGIVYIPRMNASHPHDAMLTEAGVSGWLCIMAAYGSRDGILGFDAVRGGALTYWSEVSLFRMAFDAIGNAIRRARLEGEKERLQASLQQARRMETIGTFASGIAHNFNNIVGAILGHAEMADARVAPGSRPAASLAEIRRAGERARELVEQILGFGRRGEGRRERVCLRTLVDETRSLLAASLPSHVTFEVDETADIAIVTGEPAQLQQVILNLCNNAAQAMKEPGRIELRIKVHDLVKPLSIGRSEVGPGRFTVISVADPGPGMDEATLERIFEPFFTTRPDGNGLGLATVREIVEQHGGAVAVQSRPDAGTRFDIWLPSGEPVEPQPAQHGSDPAFLGAGETVLVIDTDRRRLLRYEEILAALGYEPVGFTGLAEAIAACRAAHARFDAALVCHLPGGSSLDLAAALHDAAPALPIILAAPSTRDLAMPSLKTSGITELVHHPLASAELASALARSLVSSATSGRLRRAAGAS | failed
11 | SAQSLSSEPDILFLDGWQLRYQAFAARADDPRPPVLLLGGAFQSFRSFTGEVSELLAEHPVILLDLPSQGGNLQLAAELSLEDLADLIAAFAEQLGLPPLMPIGLSYGSALAALFAARHPRRCARLLLAGITAFGRPGARLLLEEALARLDEGDQSAFAHGVLTGLINPLQLERTGVSPVFRKAMLRQLQRLTAAEIERYRQNSRRLLAFGGFERHPTCPTLVLAGEYDHFTQPWEHAVFAHACGNAEFALIHDADHLAQFERREACARLYGPFLRG | failed

From a protein production outcome set (Wang et al. 2014)
